The supplement of paper PMC9732359
± gives the uncertainty stated by the source.

Test: protein stability index of a GFP-peptide fusion (yeast GPS) (PSI 1-4); higher = more stable; sorted into four equal gates, so the index is relative within each strain
How it was run: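 Tiled yeast protein peptides of 17 residues were each joined downstream of GFP, on plasmids that also express Cherry. The pooled library was maintained in yeast, and mid-log cultures in leucine-free medium were sorted into four equal gates on the GFP/Cherry ratio. Plasmids from every gate were amplified by PCR and sequenced on Illumina, with barcodes linking reads to strains. The protein stability index of a peptide is its gate-number-weighted read frequency summed over the gates.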

| Sequence | protein stability index (doa10∆) | protein stability index (pdr5∆) | protein stability index (san1∆) | protein stability index (ubr1∆) |
| --- | --- | --- | --- | --- |
| EQVRKMYQEWEDETVKV [NSL1] | 3.7 ± 0.09 | 3.52 ± 0.083 | 3.406 ± 0.032 | 3.58 ± 0.077 |
| LLFAINSYQPSPFFVLD [SMC1] | 2.16 ± 0.06 | 2 ± 0.078 | 2.23 ± 0.082 | 2.57 ± 0.044 |
| VAQPDSLRETNTTDPLG [SIR2] | 3.09 ± 0.17 | 3.45 ± 0.17 | 2.41 ± 0.12 | 3.08 ± 0.14 |
| EDDLVGVVQMVTDNKTP [TAF14] | 2.72 ± 0.15 | 2.52 ± 0.19 | 2.84 ± 0.091 |  |
| VTRKQEDARRNPNPSSQ [RPC37] | 3.33 ± 0.087 | 3.44 ± 0.094 | 3.19 ± 0.081 | 3.54 ± 0.061 |
| VIANPKGEMKGSAITGP [RPL23A] | 3.19 ± 0.13 | 3.22 ± 0.2 | 2.64 ± 0.14 | 2.91 ± 0.23 |
| LNEALLQCPMLYVESTG [CSN12] | 1.47 ± 0.088 | 1.26 ± 0.09 | 1.23 ± 0.15 | 1.19 ± 0.054 |
| FRAVGEGNAQLVAIFGG [FAS1] | 1.17 ± 0.043 | 1.55 ± 0.063 | 1.51 ± 0.1 | 1.36 ± 0.055 |
| LMYQIKKECALLISYGV [SRB4] | 1.9 ± 0.12 | 3.09 ± 0.16 | 2.12 ± 0.19 | 1.93 ± 0.15 |
| PQIVKLFDISREALSGR [ECM29] | 3.44 ± 0.15 | 3.26 ± 0.1 | 3.59 ± 0.081 | 2.95 ± 0.054 |
| FHFAIEQISNNSNQQQN [SIN4] | 2.93 ± 0.061 | 2.53 ± 0.044 | 2.74 ± 0.066 | 2.9 ± 0.049 |
| PNGSGKSNVIDSMLFVF [SMC4] | 2.87 ± 0.048 | 2.87 ± 0.051 | 2.68 ± 0.055 | 2.96 ± 0.037 |
| HILRISFLDRKRAKEFI [SIN4] | 2.42 ± 0.079 | 2.67 ± 0.078 | 2.05 ± 0.063 | 2.4 ± 0.049 |
| SRLCTPIPVQGEIEIKP [RPN13] | 2.42 ± 0.078 | 2.58 ± 0.067 | 1.7 ± 0.26 | 2.66 ± 0.1 |
| LNLLNYQELFIQPKNSD [YML103C/NUP188] | 2.57 ± 0.06 | 2.21 ± 0.056 | 2.35 ± 0.054 | 2.3 ± 0.045 |
| VAAERAARKAANKEKRA [RPL7A] | 2.36 ± 0.21 | 1.54 ± 0.12 |  | 1.71 ± 0.082 |
| GALQESVEAYLVSLFED [HHT1] | 1.42 ± 0.095 | 2.62 ± 0.12 | 2.29 ± 0.12 | 2.05 ± 0.08 |
| DKLPQFVDENTFQRVCQ [RPN1] | 3.04 ± 0.082 | 3.28 ± 0.12 | 3.15 ± 0.062 | 3.3 ± 0.078 |
| TNSHYNNTNTDNVSGLT [SNF2] | 3.19 ± 0.062 | 3.31 ± 0.046 | 3.37 ± 0.044 | 3.25 ± 0.034 |
| PPLTSQYSTRHDAPRGL [SWI3] | 3.13 ± 0.047 | 3.19 ± 0.06 | 3.14 ± 0.05 | 3.21 ± 0.045 |
| HLLIKIIRQLSELNEGN [SRB8] | 2.8 ± 0.097 | 2.77 ± 0.089 | 3.18 ± 0.052 | 1.97 ± 0.053 |
| PGGYFIVNGTEKVILVQ [RET1] | 1.63 ± 0.12 | 1.67 ± 0.1 | 1.28 ± 0.13 | 2.48 ± 0.13 |
| PLSAGFNYGKLPLPPSV [SIN4] | 2.75 ± 0.074 | 2.9 ± 0.068 | 2.84 ± 0.038 | 2.93 ± 0.051 |
| AGHVSGVITVHNVFSKE [RPN14] | 1.85 ± 0.15 | 1.75 ± 0.14 | 2.92 ± 0.077 | 2.79 ± 0.13 |
| IDDKGVLMERKDERGEG [ITC1] | 3 ± 0.21 | 3.5 ± 0.18 | 3 ± 0.15 | 3.02 ± 0.21 |
| LVHSEYLINGKRFKRKD [SRP68] | 2.68 ± 0.16 | 2.79 ± 0.065 | 2.84 ± 0.076 | 2.67 ± 0.038 |
